The values that follow come from paper PMC3159454 (Nucleic Acids Research, 2011).

This data set deals with the molecule itself. The data set can be described thus: SEC. For orientation: SEC sorts molecules by how far they enter the pores of the column.

B1: Elk-1 (recombinant, full length) (natural protein, UniProt P19419 1-428, looked up)
chain: MDPSVTLWQFLLQLLREQGNGHIISWTSRDGGEFKLVDAEEVARLWGLRKNKTNMNYDKLSRALRYYYDKNIIRKVSGQKFVYKFVSYPEVAGCSTEDCPPQPEVSVTSTMPNVAPAAIHAAPGDTVSGKPGTPKGAGMAGPGGLARSSRNEYMRSGLYSTFTIQSLQPQPPPHPRPAVVLPSAAPAGAAAPPSGSRSTSPSPLEACLEAEEAGLPLQVILTPPEAPNLKSEELNVEPGLGRALPPEVKVEGPKEELEVAGERGFVPETTKAEPEVPPQEGVPARLPAVVMDTAGQAGGHAASSPEISQPQKGRKPRDLELPLSPSLLGGPGPERTPGSGSGSGLQAPGPALTPSLLPTHTLTPVLLTPSSLPPSIHFWSTLSPIAPRSPAKLSFQFPSSGSAQVHIPSISVDGLSTPVVLSPGPQKP
One may read the stoichiometry N as the number of molecules, sites or subunits per partner or assembly. For B1, the “stoichiometry N” value came out at 2.
